Legend:
Assay in all cases: SPR
P2-4G = molecular target: P2-4G
[1] = molecular target: P2-3A-RBD (insect cell expression system)
[2] = molecular target: P2-3D-RBD (insect cell expression system)
[3] = molecular target: P1-1G-RBD (insect cell expression system)
[4] = molecular target: P2-3E-RBD (insect cell expression system)
[5] = molecular target: P1-5B-RBD (insect cell expression system)
[6] = molecular target: P2-2C-RBD (insect cell expression system)
[7] = molecular target: P1-5B-RBD (mammalian cell expression system)
[8] = molecular target: P2-2C-RBD (mammalian cell expression system)
[9] = molecular target: P2-3E-RBD (mammalian cell expression system)
[10] = molecular target: P2-3A-RBD (mammalian cell expression system)
[11] = molecular target: P2-5C-RBD (mammalian cell expression system)

B1: HEV-p239 (other)
chain: IALTLFNLADTLLGGLPTELISSAGGQLFYSRPVVSANGEPTVKLYTSVENAQQDKGIAIPHDIDLGESRVVIQDYDNQHEQDRPTPSPAPSRPFSVLRANDVLWLSLTAAEYDQSTYGSSTGPVYVSDSVTLVNVATGAQAVARSLDWTKVTLDGRPLSTIQQYSKTFFVLPLRGKLSFWEAGTTKAGYPYNYNTTASDQLLVENAAGHRVAISTYTTSLGAGPVSISAVAVLAPHSV
Kd (P2-4G): 3.4 nM
Kd [1]: 0.655 nM
Kd [2]: 1.8 nM
Kd [3]: 3.57 nM
Kd [4]: 1.41 nM
Kd [5]: 1.13 nM
Kd [6]: 3.71 nM
Kd [7]: 0.131 nM
Kd [8]: 1.02 nM
Kd [9]: 1.24 nM
Kd [10]: 0.0364 nM
Kd [11]: 0.874 nM
